# Experimental data reported in publication PMC8017925, “Structural basis for differential recognition of phosphohistidine-containing peptides by 1-pHis and 3-pHis monoclonal antibodies” (Proceedings of the National Academy of Sciences of the …, 2021).
# Biological target: ACLYana-3-pTza peptide (AGAG-3-pTza-AGAG)
# Assay: BLI binding kinetics of 3-pHis Fabs with cognate pTza peptide
# Procedure: Biolayer interferometry (BLI) studies were performed to determine the relative affinity of pHis Fabs to in situ phosphorylated His peptides versus the phosphomimetic substrates. The N-terminally biotinylated peptides were immobilized on streptavidin biosensors and the rate of association (ka) and dissociation (kd) were determined by varying the pHis Fab concentration. Equilibrium dissociation constants (KD) were determined by fitting the experimental data to a 1:1 Langmuir binding model. ACLYana-1-pTza and ACLYana-3-pTza peptides were used to determine affinity to 1-pHis and 3-pHis Fabs, respectively (Fig. 3 A–E and Table 1). […] The two isomers were separated from each other by passing the reaction through affinity columns containing 1-pHis mAbs using SC1-1 or SC50-3 IgGs or 3-pHis mAbs using SC39-4, SC44-8, and SC56-2 IgGs. The eluates thus contained either predominantly 1-pHis or 3-pHis peptides. These peptides were used to determine the affinity to their respective isomer class of pHis Fabs (Fig. 3 F–J, Table 1, and SI Appendix, Fig. S5). […] This experimental observation is well supported by the higher number of hydrogen bonds that support the SC44-8:3-pTza interaction compared to other pHis Fabs (SI Appendix, Table S5). […] There are at least three reasons for the lower affinity of the mAbs for pHis peptides compared to pTza peptides: The continuous hydrolysis of phosphate from the pHis peptides during the course of the experiment (SI Appendix, Fig. S6), a reduction in the number of hydrogen bond interactions due to one less nitrogen in the imidazole ring compared to triazolyl ring (Fig. 4 and SI Appendix, Fig. S8), and inherently different electronic properties of the imidazole and triazolyl rings in His and Tza, respectively ([20]).
# Fig. 3. Binding kinetics of pHis Fabs with cognate pTza and pHis peptides. BLI studies of immobilized peptides (ACLYana-1/3-pTza and phosphorylated ACLYana) with varying concentrations of the pHis Fabs were carried out in triplicate on an Octet Red96e instrument (FortéBio). SC1-1 (A) and SC50-3 (B) pHis Fab interaction with their ACLYana-1-pTza peptides. SC39-4 (C), SC44-8 (D), and SC56-2 (E) pHis Fabs interactions with ACLYana-3-pTza peptides. SC1-1 (F), SC50-3 (G), SC39-4 (H), SC44-8 (I), and SC56-2 (J) pHis Fabs interactions with their affinity-purified ACLYana-pHis peptides are represented, Right. The experimental data are represented in the black dashed lines and the nonlinear least-squares fitting was represented in the red continuous lines. The χ^2 for the goodness of fit is under 1.0 for the all the plots.
# The binding kinetics of pHis Fabs with the peptides (pTza and pHis) were evaluated with an Octet RED96e (FortéBio). Streptavidin-coated biosensors (FortéBio) were presoaked in buffer containing 50 mM Hepes pH 8.0, 150 mM NaCl, 0.05% Tween-20, and 0.2% BSA for 15 min. The biotinylated pTza peptides or pHis peptides (20 nM) with and without phosphoramidate treatment were coated onto these streptavidin biosensors and analyzed for their binding to varying concentrations of the pHis Fabs with an association time of 120 s and dissociation time of 200 s. The entire set of experiments was repeated three times. The data were analyzed using the Octet software (FortéBio) and the rates of association and dissociation were obtained by global fitting data to the 1:1 Langmuir interaction model.
# [1] = BLI, immobilized biotinylated ACLYana-3-pTza, 1:1 Langmuir global fit, triplicate
molecule,measurement,setting,value
"SC44-8: Fab of rabbit 3-pHis-specific monoclonal antibody with proclivity for GpHAGA motif (antibody, V domains shown) VH: QSVKESGRGLVQPGGSLTLTCTASGFSIDSYGFSWVRQAPGKGLEHIGYLTAGGRAFYASWAKSRSTITRNTNENTVTLKMTSLTAADTATYFCAKLGSGNPVAIWGPGTLVTVSS VL: QVLTQTPSFTSAAVGGTVTINCQSSQSVWRNKNLAWYQQKPGQPPKRLIYAIATLDSGVPSRFSGSGSGTQFTLTISDVQCDDAATYYCVGHYGSENDAYYAFGGGTEVVVK",Kd,"BLI Octet RED96e, N-terminally biotinylated peptide (20 nM) on streptavidin biosensors, varying Fab concentration, 50 mM Hepes pH 8.0, 150 mM NaCl, 0.05% Tween-20, 0.2% BSA, association 120 s, dissociation 200 s, global fit 1:1 Langmuir, triplicate",0.235 nM
same,"dissociation rate, times slower than the other pHis Fabs","BLI, 3-pTza peptide",70 times
same,ka,[1],156000 ± 457 M⁻¹ s⁻¹
same,kd,[1],3.66e-05 ± 7.5e-07 s⁻¹
